Results on 3 molecules are retold here after article PMC7324491, “Non-native proteins inhibit the ER oxidoreductin 1 (Ero1)–protein disulfide-isomerase relay when protein folding capacity is exceeded” (The Journal of Biological Chemistry, 2020).

Ends that are not written are not given here. * marks the point of attachment. Biotin = O=C1N[C@H]2[C@H](CS[C@H]2CCCCC(=O)*)N1

As usually defined, the Kd is the equilibrium constant for the complex coming apart. High values mean a looser complex, low ones a tighter complex. The stoichiometry N is the number of molecules, sites or subunits per partner or assembly.

One test deals with T1, Ero1α–PDI (Homo sapiens, UniProt P07237).
T1 construct: gene P4HB; with ERO1-like protein alpha
Description: oxygen consumption assay. It is filed as biochemical. To be noted: pH 7.0, 50 μM inhibitor pre- or postactivation, 10 μM PDI, 10 mM GSH; control compound.

Test [1] addresses T2, His-tagged mature protein disulfide-isomerase (PDI) (human, UniProt P07237 18-508).
T2 construct: protein disulfide-isomerase (PDI), human, mature protein, domains a, b, b', a'; calculated mass of the construct 56379 Da; Treated with 1 mM DTT before ITC and in the BLI assays with the β-hairpin
Nature of the test: BLI; biotin-labeled β-hairpin of Ero1α immobilised on SA biosensors; PDI at 0, 0.5, 1.0, 2.0, 4.0 μM; 30 °C; 20 mM sodium phosphate, pH 7.0, 300 mM NaCl, 1 mM DTT; 1:1 model. To be noted: both partners purified.

The target in test [2] is T2, His-tagged mature protein …. Description: ITC; 600 μM KFWWFS injected into 27 μM PDI; 25 °C; 20 mM sodium phosphate, pH 7.0, 0.15 M NaCl; both treated with 1 mM DTT for 5 min before the measurement. To be noted: both partners purified.
For test [3] the target is unchanged. Nature of the test: BLI; KFWWFS immobilised on AR2G biosensors; PDI at 0, 0.5, 1.0, 2.0 μM; 30 °C; 20 mM sodium phosphate, pH 7.0, 300 mM NaCl; 1:1 model, association and dissociation fitted separately. The settings on record: both partners purified. Background: Biolayer interferometry detects binding as a change in optical thickness at a sensor tip.

T2 sequence (P07237 18-508): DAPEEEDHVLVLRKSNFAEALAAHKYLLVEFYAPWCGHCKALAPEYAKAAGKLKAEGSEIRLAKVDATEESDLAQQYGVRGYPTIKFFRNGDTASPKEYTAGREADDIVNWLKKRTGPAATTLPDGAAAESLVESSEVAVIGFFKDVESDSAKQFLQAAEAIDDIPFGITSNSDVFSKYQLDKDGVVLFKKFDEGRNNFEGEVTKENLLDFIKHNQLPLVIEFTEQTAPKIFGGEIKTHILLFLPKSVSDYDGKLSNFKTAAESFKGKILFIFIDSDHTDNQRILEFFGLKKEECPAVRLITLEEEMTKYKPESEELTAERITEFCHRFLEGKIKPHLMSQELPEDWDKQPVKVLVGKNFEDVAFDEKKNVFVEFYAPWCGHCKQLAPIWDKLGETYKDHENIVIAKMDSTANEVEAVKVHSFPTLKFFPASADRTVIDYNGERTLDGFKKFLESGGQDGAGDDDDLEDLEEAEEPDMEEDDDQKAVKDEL
T1 sequence (P07237 18-508): as above
T1 sequence (Q96HE7 24-468 partner): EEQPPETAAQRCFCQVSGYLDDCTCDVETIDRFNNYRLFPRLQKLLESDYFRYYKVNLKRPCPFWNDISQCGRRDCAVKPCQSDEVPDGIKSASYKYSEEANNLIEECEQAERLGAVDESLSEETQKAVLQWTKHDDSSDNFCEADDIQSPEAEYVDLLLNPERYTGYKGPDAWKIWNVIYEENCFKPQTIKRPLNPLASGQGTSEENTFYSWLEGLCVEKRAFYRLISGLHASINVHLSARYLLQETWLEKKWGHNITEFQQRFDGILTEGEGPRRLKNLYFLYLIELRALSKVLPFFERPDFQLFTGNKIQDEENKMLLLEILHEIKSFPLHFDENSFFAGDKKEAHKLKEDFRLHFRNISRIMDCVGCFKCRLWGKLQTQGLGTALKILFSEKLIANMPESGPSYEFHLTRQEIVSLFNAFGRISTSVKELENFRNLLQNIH

On to `C[C@]12CC[C@@H]3c4ccc(O)cc4CC[C@H]3[C@@H]1CC[C@H]2O` [17α-estradiol], for which, on Ero1α–PDI, the “inhibition at 50 μM” value is “it inhibited both activation and catalytic turnover, but only marginally”.

B1: β-hairpin of Ero1α (RYLLQETWLEKKWGH) with an N-terminal biotin label (peptide)
peptide: Biotin-RYLLQETWLEKKWGH
notes: protruding β-hairpin of human ER oxidoreductin 1 alpha (Ero1α), with a tryptophan at the tip (Trp272); also called β-hairpin loop of Ero1α; source: synthetic peptide, synthesized by GenScript
As for B1, the Kd in test [1] stood at 4 µM. In other words, the single-digit micromolar range.

B2: peptide KFWWFS (peptide)
peptide: KFWWFS
notes: model peptide without cysteine that mimics the exposed hydrophobic core of protein substrates; Immobilised on AR2G biosensors for BLI; also called model peptide; source: lyophilized peptide dissolved in 10 mM HCl
For B2, in test [2], the Kd was 6.8 µM and the “stoichiometry N” value was 0.97. The molecule also had a Kd in test [3] of 12.7 µM.
